Source: US7479478B2, “Human parathyroid hormone modifications, preparation and use” (The General Hospital Corporation, priority 1998, dated 2009)
No end group written: not given here.

Key:
Assay type in all cases: cell-based
human PTH-1 receptors [1] = biological target: T1, human PTH-1 receptors (Homo sapiens, UniProt Q03431); assay: PLC activation (IP3 formation) in HKRK B7 cells; details: HKRK B7 cells; up to 1000 nM or 10 μM
T1 construct: expressed in transfected cells
T1 sequence (Q03431 27-593): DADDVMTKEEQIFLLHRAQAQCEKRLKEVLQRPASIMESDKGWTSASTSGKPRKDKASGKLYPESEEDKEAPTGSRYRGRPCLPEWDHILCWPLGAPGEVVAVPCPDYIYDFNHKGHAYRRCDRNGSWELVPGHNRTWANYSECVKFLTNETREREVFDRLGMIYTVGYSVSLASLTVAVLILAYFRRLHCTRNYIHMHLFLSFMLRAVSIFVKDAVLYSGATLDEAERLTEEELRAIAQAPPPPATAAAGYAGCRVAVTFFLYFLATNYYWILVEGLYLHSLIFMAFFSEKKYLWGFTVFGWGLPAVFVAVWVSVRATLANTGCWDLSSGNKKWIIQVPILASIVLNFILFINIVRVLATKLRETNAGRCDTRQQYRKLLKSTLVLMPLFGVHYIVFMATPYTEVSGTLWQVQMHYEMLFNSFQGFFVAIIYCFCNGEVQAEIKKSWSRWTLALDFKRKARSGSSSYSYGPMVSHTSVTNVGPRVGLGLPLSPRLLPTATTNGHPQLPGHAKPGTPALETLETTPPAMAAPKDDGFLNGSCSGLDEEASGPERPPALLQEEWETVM
Method: (§1) HKRK B7 or EW5 cells (32), subclones of LLC-PKI renal epithelial cells that stably express human or rat PTH-1 receptors (950,000 and 320,000 receptors/cell, respectively), were maintained under 5% CO2 in air in Dulbecco's modified essential medium containing 7% fetal bovine serum (FBS) and 1% penicillin/streptomycin (GIBCO-BRL, Grand Island, N.Y.). HEK-293 and COS-7 cells were cultured similarly, except that 10% FBS was used in the medium. Cells were seeded into 24-well plates two days before assay at a density of 2-2.5×10^5 cells/well (HKRK B7 or EW 5 cells) or 6×10^5 cells/well (in 6-well plates) (HEK-293 cells). In experiments involving HEK-293 cells, DNA transfections were performed 24 hr after plating and inositol radiolabel was added 24 hr thereafter (see below). COS-7 cell transfections were performed as previously described (Gardella, T. J., et al., Endocrinology 132(5):2024-2030 (1993))
PLC was activated by PTH agonists in the presence of 30 mM LiCl at 37° C. for 30 min after 16 hr of labeling with [^3H]myo-inositol (3 uCi/ml) in serum-free medium containing 0.1% bovine serum albumin. The reactions were stopped by rapid aspiration and addition of cold 5% TCA. Water-soluble radiolabeled inositol trisphosphate (IP3) was isolated after ether extraction by ion-exchange chromatography (Guo, J., et al., Endocrinology 136(9):3884-3891 (1995)). In experiments involving HEK 293 cells, cells previously transfected with human PTHR cDNA (in the pcDNA1 expression vector HKRK) using Lipofectamine (Gibco BRL) were labeled with [^3H]myo-inositol and assayed as described above, except that total water-soluble [^3H]inositol polyphosphates were collected as a single fraction from the ion-exchange columns.

human PTH-1 receptors [2] = biological target: T1, human PTH-1 receptors; assay: PLC activation in COS-7 cells expressing human PTH-1 receptors; details: up to 1000 nM
Method: as §1
(§2) PLC was activated by PTH agonists in the presence of 30 mM LiCl at 37° C. for 30 min after 16 hr of labeling with [^3H]myo-inositol (3 uCi/ml) in serum-free medium containing 0.1% bovine serum albumin. The reactions were stopped by rapid aspiration and addition of cold 5% TCA. Water-soluble radiolabeled inositol trisphosphate (IP3) was isolated after ether extraction by ion-exchange chromatography (Guo, J., et al., Endocrinology 136(9):3884-3891 (1995)). […]

rat PTH-1 receptors = biological target: T2, rat PTH-1 receptors (Rattus norvegicus, UniProt P25961); assay: PLC activation in COS-7 cells expressing rat PTH-1 receptors; details: up to 1000 nM
T2 construct: expressed in transfected cells
T2 sequence (P25961 27-591): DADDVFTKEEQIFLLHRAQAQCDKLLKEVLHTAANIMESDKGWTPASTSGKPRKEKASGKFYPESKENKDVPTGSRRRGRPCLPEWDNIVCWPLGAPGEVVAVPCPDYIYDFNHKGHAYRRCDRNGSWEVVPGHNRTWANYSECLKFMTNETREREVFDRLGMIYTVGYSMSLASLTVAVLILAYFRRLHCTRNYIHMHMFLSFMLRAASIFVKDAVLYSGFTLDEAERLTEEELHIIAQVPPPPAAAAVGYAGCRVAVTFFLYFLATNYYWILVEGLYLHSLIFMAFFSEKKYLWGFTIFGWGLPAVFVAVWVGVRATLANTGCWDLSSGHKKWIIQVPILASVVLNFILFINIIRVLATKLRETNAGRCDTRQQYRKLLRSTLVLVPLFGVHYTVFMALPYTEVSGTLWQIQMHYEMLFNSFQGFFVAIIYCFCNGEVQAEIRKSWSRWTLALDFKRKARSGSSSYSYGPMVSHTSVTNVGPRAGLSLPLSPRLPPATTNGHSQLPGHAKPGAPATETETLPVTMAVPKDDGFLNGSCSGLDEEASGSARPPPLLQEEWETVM
Method: as §1, §2

Human PTH-(3-34): N-truncated human PTH peptide lacking Ser^1-Val^2 (SEIQLMHNLGKHLNSMERVEWLRKKLQDVHNF-NH2; UniProt P01270 34-65, looked up, fragment)
did not activate PLC: PLC activation (IP3 formation), result in words (human PTH-1 receptors [1]) | PLC activation, result in words (human PTH-1 receptors [2]) | PLC activation, result in words (rat PTH-1 receptors)
